Laboratory results as given in patent US20130102527A1 (TRUSTEES OF DARTMOUTH COLLEGE, published 2013).
Read-outs that look alike come from different tables or passages of the source. Non-standard residues stand in square brackets, D forms with d. Primed or numbered codes have the meaning given here. No end group written: not given here. *: point of attachment. N3‑Phe = N-terminal azido-phenylalanine, [N-]=[N+]=N[C@@H](Cc1ccccc1)C(=O)*; HMB = 3-hydroxy-2-methylbenzoyl cap, Cc1c(O)cccc1C(=O)*; Phe(4-N3) = [N-]=[N+]=Nc1ccc(C[C@H](N)C(=O)O)cc1; Phe(4-CH2NH2) = NCc1ccc(C[C@H](N)C(=O)O)cc1; Phe(4-NH2) = Nc1ccc(C[C@H](N)C(=O)O)cc1; N3Phe = N-terminal azido-phenylalanine; 4Pal = N[C@@H](Cc1ccncc1)C(=O)O; VS″ = vinyl sulfone (warhead); VS = vinyl sulfone warhead; EK = epoxyketone warhead; ek = epoxyketone warhead

Tests used:
[1] = target: T1, caspase-like site (β1 subunit) of 26S proteasomes purified from rabbit muscle (rabbit); experiment: cell-based or functional assay
[2] = target: T2, trypsin-like site (β2 subunit) of 26S proteasomes purified from rabbit muscle (rabbit, UniProt G1SWK8 44-271); experiment: cell-based or functional assay
T2 sequence: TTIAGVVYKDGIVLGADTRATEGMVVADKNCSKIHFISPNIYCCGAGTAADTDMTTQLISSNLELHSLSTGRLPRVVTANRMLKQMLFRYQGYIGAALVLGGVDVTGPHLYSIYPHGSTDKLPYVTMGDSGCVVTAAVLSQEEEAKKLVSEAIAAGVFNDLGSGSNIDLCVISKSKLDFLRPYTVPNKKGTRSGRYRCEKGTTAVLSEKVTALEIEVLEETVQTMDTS

[3] = target: T3, chymotrypsin-like site (β5 subunit) of 26S proteasomes purified from rabbit muscle (rabbit, UniProt G1T4Q9 60-263); experiment: cell-based or functional assay
T3 sequence: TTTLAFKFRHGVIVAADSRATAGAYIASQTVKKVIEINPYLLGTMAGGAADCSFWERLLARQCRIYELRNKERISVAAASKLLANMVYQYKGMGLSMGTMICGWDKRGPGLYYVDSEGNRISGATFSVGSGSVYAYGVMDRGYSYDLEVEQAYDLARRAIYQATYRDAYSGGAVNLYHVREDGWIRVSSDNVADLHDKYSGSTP

[4] = target: T4, proteasome β1 subunit (caspase-like site) in human cells and cell extracts (human, UniProt P28072 35-239); experiment: cell-based or functional assay
T4 sequence (P28072 35-239): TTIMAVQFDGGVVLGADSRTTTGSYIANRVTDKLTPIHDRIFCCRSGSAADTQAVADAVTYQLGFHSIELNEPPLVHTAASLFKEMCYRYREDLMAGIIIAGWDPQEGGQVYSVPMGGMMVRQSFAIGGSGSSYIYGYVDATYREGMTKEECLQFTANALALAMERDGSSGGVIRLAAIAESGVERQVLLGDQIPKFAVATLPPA

[5] = target: T5, proteasome β5 subunit (chymotrypsin-like site) in human cells and cell extracts (human, UniProt P28074 60-263); experiment: cell-based or functional assay
[6] = target: T1, caspase-like site (β1 subunit) of 26S …; experiment: cell-based or functional assay; remark: listed apart in the source
[7] = target: T2, trypsin-like site (β2 subunit) of 26S …; experiment: cell-based or functional assay; remark: listed apart in the source
[8] = target: T2, trypsin-like site (β2 subunit) of 26S …; experiment: cell-based or functional assay; remark: listed apart in the source
[9] = target: T3, chymotrypsin-like site (β5 subunit) of …; experiment: cell-based or functional assay; remark: listed apart in the source
[10] = target: T5, proteasome β5 subunit …; experiment: competition with activity-based probe in living HEK-293 cells, 4 h; Chym-L site
[11] = target: T6, trypsin-like site (β2 subunit) of yeast 20S proteasome (S. cerevisiae, UniProt P25043 30-261); experiment: cell-based or functional assay
T6 sequence (looked up): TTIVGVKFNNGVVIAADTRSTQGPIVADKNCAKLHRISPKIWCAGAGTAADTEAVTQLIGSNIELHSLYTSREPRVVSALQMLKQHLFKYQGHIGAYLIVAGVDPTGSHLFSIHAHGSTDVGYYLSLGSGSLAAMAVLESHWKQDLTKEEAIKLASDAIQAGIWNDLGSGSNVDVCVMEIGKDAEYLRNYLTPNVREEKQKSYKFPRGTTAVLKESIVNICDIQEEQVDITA

[12] = target: T7, chymotrypsin-like site (β5 subunit) of yeast 20S proteasome (S. cerevisiae, UniProt P30656 76-287); experiment: cell-based or functional assay
T7 sequence (looked up): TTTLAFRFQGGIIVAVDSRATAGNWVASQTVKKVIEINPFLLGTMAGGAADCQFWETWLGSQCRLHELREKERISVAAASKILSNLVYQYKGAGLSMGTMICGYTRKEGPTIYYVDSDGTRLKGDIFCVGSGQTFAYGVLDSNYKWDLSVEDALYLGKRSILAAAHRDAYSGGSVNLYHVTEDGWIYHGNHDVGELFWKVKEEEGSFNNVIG

[13] = target: T6, trypsin-like site (β2 subunit) of yeast …; experiment: cell-based or functional assay; remark: listed apart in the source
[14] = target: T4, proteasome β1 subunit (caspase-like …); experiment: labelling and competition assay in HEK-293T lysate, fluorescence gel

B1: N3Phe-Leu-Leu-Phe(4-CH2NH2)EK TFA salt (4b) (peptide)
peptide: [Phe(4-N3)]LL[Phe(4-CH2NH2)]-{EK}
modifications: also: TFA salt
Question: Which “IC50 (µM) for sites in 26S proteasomes: Casp-L” value [1] does the source give for B1 here?
Answer: 11 µM

Question: And the “IC50 (µM) for sites in 26S proteasomes: Tr-L” value [2]?
Answer: 0.25 µM

B2: N3-Phe-Leu-Leu-Phe(4-NH2)-VS (45a) (peptide)
peptide: [N3Phe]LL[Phe(4-NH2)]-{VS}
Question: Which results are given for B2?
Answer: IC50 (µM) for sites in 26S proteasomes: Casp-L [1]: 23 µM; IC50 (µM) for sites in 26S proteasomes: Chym-L [3]: 0.04 µM

B3: N3-Phe-Leu-Leu-Phe(4-NH2)-EK (45b) (peptide)
peptide: [Phe(4-N3)]LL[Phe(4-NH2)]-{EK}
Question: With B3 as the binder, how does the “IC50 (µM) for sites in 26S proteasomes: Casp-L” value [1] read?
Answer: > 30 µM

Question: What about the “IC50 (µM) for sites in 26S proteasomes: Tr-L” value [2] of the same binder?
Answer: 1.8 µM

Question: And the “IC50 (µM) for sites in 26S proteasomes: Chym-L” value [3]?
Answer: 0.01 µM

B4: NC-002 (Ac-Leu-Leu-Arg-ek) (peptide)
peptide: Ac-Leu-Leu-Arg-ek
Question: For B4, which “IC50 (µM) for sites in 26S proteasomes: Casp-L” value [1] is on record?
Answer: > 30 µM

Question: And the “IC50 (µM) for sites in 26S proteasomes: Tr-L” value [2]?
Answer: 1 µM

Question: And the “IC50 (µM) for sites in 26S proteasomes: Chym-L” value [3]?
Answer: > 30 µM

B5: NC-022 (HMB-Val-Ser-Arg-ek) (peptide)
peptide: {HMB}-Val-Ser-Arg-ek
Question: What does the source list for B5?
Answer: IC50 (µM) for sites: Casp-L; NCI-H929 cells, 6 h, PROTEASOMEGLO [4]: > 30 µM; IC50 (µM) for sites: Casp-L; RPMI-8226 cells, 6 h, PROTEASOMEGLO [4]: > 30 µM; IC50 (µM) for sites: Chym-L; NCI-H929 cells, 6 h, PROTEASOMEGLO [5]: > 30 µM; IC50 (µM) for sites: Chym-L; RPMI-8226 cells, 6 h, PROTEASOMEGLO [5]: > 30 µM; IC50 (µM) for sites in 26S proteasomes: Casp-L [6]: 16 µM; IC50 (µM) for sites in 26S proteasomes: Tr-L [7]: 0.0038 µM

B6: HMB-Val-Ser-Phe(4-CH2NH2)-VS (48) (peptide)
peptide: {HMB}-Val-Ser-[Phe(4-CH2NH2)]-{VS}
Question: B6 was tested. Which “IC50 (µM) for sites: Casp-L; NCI-H929 cells, 6 h, PROTEASOMEGLO” value [4] did it give?
Answer: > 30 µM

Question: And the “IC50 (µM) for sites: Casp-L; RPMI-8226 cells, 6 h, PROTEASOMEGLO” value [4]?
Answer: > 30 µM

Question: And the “IC50 (µM) for sites in 26S proteasomes: Casp-L” value [6]?
Answer: 11 µM

Question: And the “IC50 (µM) for sites in 26S proteasomes: Tr-L” value [7]?
Answer: 0.25 µM

B7: N3-Phe-Ala(4-pyridine)-Leu-Phe(4-CH2NH2-TFA)-VS (50) (peptide)
chain: [N3Phe][4Pal]L[Phe(4-CH2NH2)]-{VS}
modifications: also: TFA salt
Question: For B7, which “IC50 (µM) for sites: Casp-L; NCI-H929 cells, 6 h, PROTEASOMEGLO” value [4] is on record?
Answer: > 30 µM

Question: And the “IC50 (µM) for sites: Tr-L” value [8]?
Answer: 0.012 µM

Question: And the “IC50 (µM) for sites: Chym-L” value [9]?
Answer: 1.05 µM

Question: What about the IC50 [10] of the same binder?
Answer: > 50 µM

B8: N3-Phe-Phe(4-CH2NH2)-Leu-Phe(4-CH2NH2)-VS (52) (peptide)
chain: [N3‑Phe][Phe(4-CH2NH2)]L[Phe(4-CH2NH2)]-{VS}
Question: How did the “fold potency against yeast trypsin-like sites relative to 4a” value [11] turn out when B8 was run?
Answer: > 4000 fold

Question: What about the “IC50 (µM) for yeast 20S proteasome: Chym-L” value [12] of the same binder?
Answer: 6.1 µM

Question: What about the “IC50 (µM) for yeast 20S proteasome: Tr-L” value [13] of the same binder?
Answer: 0.00055 µM

B9: BODIPY-triazole-Phe-Leu-Leu-Phe(4-CH2NH2)-VS TFA salt (39) (peptide)
peptide: {BODIPY‑triazole}-FLL[Phe(4-CH2NH2)]-{VS″}
modifications: also: TFA salt
notes: Fluorescent probe made from compound 4a; also called compound 39
Question: Does B9 bind [14]?
Answer: no binding
